# Results reported in the supplement of paper PMC9170038.
# Test system: K4 kissing-loop RNA reporter
# Experiment: apparent KD of K4 kissing-loop reporter; higher = weaker reporter binding
# Settings: Eterna round: R107; input ligand: none
# Procedure: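 RNA-MaP round R107: designed RNA switches with theophylline, tryptophan, arginine or FMN aptamers are transcribed on-chip within common flanks. They are titrated with a labelled K4 kissing-loop RNA reporter in RNA-MaP buffer (100 mM Tris pH 7.5, 80 mM KCl, 4 mM MgCl2), without ligand or with the indicated ligand. Median apparent KD per design.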
# 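Further: bound reporter read as fluorescence of individual clusters on recovered sequencing chips by microscopy, with normalized cluster intensities fitted with a binding model.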
row,Sequence,apparent KD of K4 kissing-loop reporter [nM]
1,CGCAUACCUGCGCUAGUAGUGAUGUUACAGCGAGGACCGGUACGGCCGCCACUCGUGACGGUCGCAAAACGCGUUGCAGAACACU [theeternabot_exclusion_KL_Trp_A_32],247
2,GUCCCAGUGAUGUUGGUAGGCGAGCGGGAUACCAGCGAAGACUCACGCCCUUGGCAGCCCACAUAUCCCGCGUAGGGAUUAGCUC [Same State - Theophylline A (Freestyle 21)],431
3,AAACUUGCAGUGAUGUUGCAAGUAGGUGAUACCAGCAUCGAAAGAUGCCCUUGGCAGCACCAUCACUGUAAGUAGGUGCUGUCAA [(H1)-(H2)-(T1)-(T2)-(H)'-(T)'_Design5],105
4,AGUGAACGAGCGGCCGCCACUAAAUGAGUGAUGUUCGUGAGUAGUGCUGUUGUCAUGAUUGUUUUUAGGACCGGGUUCGAUGUUG [popplmullin],1270
5,ACGCGCGCGAGUGAUGUUCGGAGCGGCUGGCAGGAUAUGCCGCAAGGCAGAAGGGUCGUGGCGCGUCCAGGGUAACCUGGACGCG [#2 Exclusion - FMN A Attempt #28 (HarryS)],466
6,UACAUUUUAUUAACACUAAAUACAACUGAAGGAGCGACAAUAAAGUCAGGUAGGUCGCAGAAUAAAUGAGUGAUGUUCAUUAUUG [JR_ExcArginiA_Sub016],63.8
7,AGCUUGGGUUCGGCCGCCACUCCACCCUUAGAAGUGAUGUUUCUCAUGCAUACGCGUCGUCAGAUGAGGACCGGGAAUGUAGUUG [theeternabot_exclusion_KL_Trp_B_24],354
8,GGAUAGGACAUAGGAUAUGGUAGUGAUGUUACCAAACUGGUUAAACAUGUCAGAAAACUGGCAUGACCAGAAGGAUGUCCUAUCG [FmnBX 27 U11+A75],66.3
9,UAACGGCAACAAGGAUAUCCCAGUGAUGUUGGGAGAUAUUGACUAAGGAGACAUGAUAGGCAUAAUGGAGAAGGUGUGUUGGGAG [theeternabot_exclusion_KL_FMN_B_19],142
10,AAAAUAAAGCAGUGAUGUUGCUUAUGAGAAGGAGCGCACGAAAGUGCAGGUAGGUCGCUCAGCCAAGUGGACGAAAACGUCCACA [#OpenEnded 10 #K4Early],123
11,GCGGGCCAGACGGCCGCCACUCCGGGCAGUGAUGUUGCGAAUCUUCUACUAGAGUGAUGUUCUACGAGGACCGGGUCGGAACGCG [Exclusion Tryptophan B Gf 14],569
12,AAUAAAAUCACGGCCGCCACUGAUUAUUUUAUUAGGAGUGAUGUUCCUAUGACAAUAUACCUUAACAGGACCGGGUGAAUAUUUA [JR_ExcTryptoB_Sub010],86.1
13,GCCGUAGAUUGAAGGAGCGCCGCACAUGUCCCGCUUAGUGUAGUGAUGUUACAGUGUCAGCGGCAGGUAGGUCGCAAUCUACGGC,225
14,CUAAGGGAAGCAGGAUAUCGGUAUUAGUGUGUUAAAUAAACACUCGGGUAGUGAUGUUGCCCGUGGCGAGAAGGGCUACCAUUGG [Laace],48.7
15,AAGUGAUGUUGUAGUGAUGUUGUGAUGUUGCAGGAUAUAUAGUGAUGUAGAAGGGUAUGUGCAGUUUUUUUUUUUGAGUGUUGAU [dpdmullin],59.9
16,UGUUAUGUAUCAGGAUAUUAGUGUUGUUUGUUUAUGUUAGUGAUGUUGAUAUUUGUUUUAUGUAUUUAAGAAGGGAUUGAGAUGU [kkplmullin],310

# Same assay, conditions: Eterna round: R107; input ligand: theophylline 20 uM
row,Sequence,apparent KD of K4 kissing-loop reporter [nM]
1,UGUACCGAGUCAGGAUAUGUCGUCGAAAGACGAAAUGGAGUGAUGUUCCUUAAACUGCGAAAGCAGACAGAAGGGAUUUGGUACU [FmnBS 29 U77],738
2,GGAUAGGAUAGAGGAUAUGGGCUAGGCAAGAAUAACUUGUCUAGCAAAUCCAUGAGGAGUGAUGUUCCAGAAGGCUAUCCUAUCG [FmnBX 1 U9+A77],145
3,CGAAUGGAACUAUUGAACAUUUGUAUUGGCAAGGAUAUCGGGCUAUCGAGAAGGUGCUAUUUGGGCAGUGAUGUUGCCGAUUUAA [theeternabot_sameState_KL_FMN_A_10],90.9
4,GACACACUUUCAGGUGUCCAGUGACUGGAUACCAGCAUGGAAACAUGCCCUUGGCAGCCAGAACUGGAAGUGAUGUUUCCAGUAA [Theo A Mod Design7 (Brourd)],262
5,AGCUCAGAGUGACUCGAUAAGAGUCACAAACGAGGACCGGUACGGCCGCCACUCGAAAUAAAGAGAGUGAUGUUCUCGCUGAGCA [FiskerMod 9 - Jieux - Same State Tryptophan A],239
6,UGUAUUUCGGCGGCCGCCACUGACCAUAGCCUUCGAUGGCCAGUGAUGUUGGCCUCUGGCUCUAACAGGACCGGGCCGAAUUGCG [Usvediin],168
7,GCAUCCAUGGCAGGAUAUAGGUUCGUGGAGUGAUGUUCCAUAGCCCGAGUGAUGUUCGUUAUCCGCCUAGAAGGGCCGUGGAUGC [whbob_Ex_FMNB__2th214],192
8,AGGUACAAAAGUACCGCUAGAUCCACGGAAGGAGCGCCCGAAAGGGCAGGUAGGUCGCCGGGCAGUGAUGUUGCCGGAUCUAGCA [Omei KL Arginine A SS A v6],181
9,UCCUGCAAUCGACCACGAAAGUGGUUCGAUACCAGAGUCGAAAGACUCCCUUGGCAGCGAGUGAUGUUCGAGCAGGUAAAAUAAA,467
10,AAAUUUAAUAUAUUUAAUUAAUUAAGUGAUACCAGACAUUAAUAAGUCCCUUGGCAGCACAAUGCAGUGAUGUUGCUUAUAAUAA [JR_SSTheophyA_Sub009],169
11,AGUAGUUGGACGGCCGCCACUGGAACAGCUUUGCCAAAGGCAGAGCACUAGAGUGAUGUUCUAGCUAGGACCGGGUCCAACUACA [whbob_SS_Tryp_B_t16],249
12,AAGUCAUAGGCAGGAUAUGCUUAGUAUUAAGGCCAUAUAUACGUAUAGAGUGAUGUUUUGUACCAGGCAGAAGGGCUACAUCCGU [FMN B Excl V5 (+2U)],683
13,UAAGAAUAAGUAGCAGUGAUGUUGCUACUACGAGGACCGGUACGGCCGCCACUCGAGCCGUACAAAGUAGCAACUAGUACGAAUA [(H1)-(H2)-(Trp1)-(Trp2)-(T)'-(H)'-(T)''],246
14,CCAGUUUGAGUGAUGUUCAGGCAUUGGUACGAGGAUAUCGAGGAGUUGAGAAGGCGUACUACUCAACUAUGUAUGAAUACAUACC [FMN A Ex t2],126
15,GCCUAGCAGCGAAGGAGCGCCAGGAGAAGAAAUGGAGAGAGUUGAGUGAUGUUCAAAUGGUGGCAGGUAGGUCGCGCUGCUAGGC [#08 K4 Arginine B Same State],444
16,UGAGGAGAGGGAAGGAGCGUGAAAGAGAAAGAAUAUAGUGAUGUUAUAUAGAAGAAAGAAUCACAGGUAGGUCGCCCGGAGGAGG [SSArgB.B],669
17,CGCAUACCUGCGCUAGUAGUGAUGUUACAGCGAGGACCGGUACGGCCGCCACUCGUGACGGUCGCAAAACGCGUUGCAGAACACU [theeternabot_exclusion_KL_Trp_A_32],253
18,GUCCCAGUGAUGUUGGUAGGCGAGCGGGAUACCAGCGAAGACUCACGCCCUUGGCAGCCCACAUAUCCCGCGUAGGGAUUAGCUC [Same State - Theophylline A (Freestyle 21)],415
19,AAACUUGCAGUGAUGUUGCAAGUAGGUGAUACCAGCAUCGAAAGAUGCCCUUGGCAGCACCAUCACUGUAAGUAGGUGCUGUCAA [(H1)-(H2)-(T1)-(T2)-(H)'-(T)'_Design5],111
20,AGUGAACGAGCGGCCGCCACUAAAUGAGUGAUGUUCGUGAGUAGUGCUGUUGUCAUGAUUGUUUUUAGGACCGGGUUCGAUGUUG [popplmullin],963
21,ACGCGCGCGAGUGAUGUUCGGAGCGGCUGGCAGGAUAUGCCGCAAGGCAGAAGGGUCGUGGCGCGUCCAGGGUAACCUGGACGCG [#2 Exclusion - FMN A Attempt #28 (HarryS)],391
22,UACAUUUUAUUAACACUAAAUACAACUGAAGGAGCGACAAUAAAGUCAGGUAGGUCGCAGAAUAAAUGAGUGAUGUUCAUUAUUG [JR_ExcArginiA_Sub016],92.8
23,AGCUUGGGUUCGGCCGCCACUCCACCCUUAGAAGUGAUGUUUCUCAUGCAUACGCGUCGUCAGAUGAGGACCGGGAAUGUAGUUG [theeternabot_exclusion_KL_Trp_B_24],351
24,GGAUAGGACAUAGGAUAUGGUAGUGAUGUUACCAAACUGGUUAAACAUGUCAGAAAACUGGCAUGACCAGAAGGAUGUCCUAUCG [FmnBX 27 U11+A75],58.8
